Consider two molecules from patent US20210163555.

In series [1] the target is Recombinant human p18 (His-p18).

In the case of endogenous Ube3a of COS-1 cells, the “levels of ubiquitinated p18 after Ube3a siRNA KD (His-ubiquitin pull-down assay)” value in the series on Flag-p18 was 100.0±1.8 vs. 66.8±3.7.

B1: His6-E6AP (protein)
chain: MEKLHQCYWKSGEPQSDDIEASRMKRAAAKHLIERYYHQLTEGCGNEACTNEFCASCPTFLRMDNNAAAIKALELYKINAKLCDPHPSKKGASSAYLENSKGAPNNSCSEIKMNKKGARIDFKDVTYLTEEKVYEILELCREREDYSPLIRVIGRVFSSAEALVQSFRKVKQHTKEELKSLQAKDEDKDEDEKEKAACSAAAMEEDSEASSSRIGDSSQGDNNLQKLGPDDVSVDIDAIRRVYTRLLSNEKIETAFLNALVYLSPNVECDLTYHNVYSRDPNYLNLFIIVMENRNLHSPEYLEMALPLFCKAMSKLPLAAQGKLIRLWSKYNADQIRRMMETFQQLITYKVISNEFNSRNLVNDDDAIVAASKCLKMVYYANVVGGEVDTNHNEEDDEEPIPESSELTLQELLGEERRNKKGPRVDPLETELGVKTLDCRKPLIPFEEFINEPLNEVLEMDKDYTFFKVETENKFSFMTCPFILNAVTKNLGLYYDNRIRMYSERRITVLYSLVQGQQLNPYLRLKVRRDHIIDDALVRLEMIAMENPADLKKQLYVEFEGEQGVDEGGVSKEFFQLVVEEIFNPDIGMFTYDESTKLFWFNPSSFETEGQFTLIGIVLGLAIYNNCILDVHFPMVVYRKLMGKKGTFRDLGDSHPVLYQSLKDLLEYEGNVEDDMMITFQISQTDLFGNPMMYDLKENGDKIPITNENRKEFVNLYSDYILNKSVEKQFKAFRRGFHMVTNESPLKYLFRPEEIELLICGSRNLDFQALEETTEYDGGYTRDSVLIREFWEIVHSFTDEQKRLFLQFTTGTDRAPVGGLGKLKMIIAKNGPDTERLPTSHTCFNVLLLPEYSSKEKLKERLLKAITYAKGFGML
Regarding B1, the “in vitro ubiquitination of p18 (Western blot)” value in series [1] is “p18 ubiquitination was only observed in the presence of Ube3a, ubiquitin, E1, E2, and ATP”.
